Data from patent US20230021388A1 (VELOSBIO, published 2023).

Target: T1, recombinant human ROR1 extracellular domain (human, UniProt Q01973 30-406)
T1 construct: biotinylated for the filter lifts; also called huROR1-ECD; human ROR1-ECD
Test: ELISA, soluble Fab on coated huROR1-ECD
Procedure: The previously described filter lift assay provides a visual, qualitative assessment of antigen binding (Example 1). In order to assess the ROR1 binding activity of Ab1 Fab in a more quantitative fashion, an ELISA assay was developed. A 96-well Costar-3366 plate was coated with 50 μL/well of 1 μg/mL human ROR1-ECD (ACROBiosystems, cat. #RO1-H522y) in PBS overnight at 4° C. The plate was rinsed once with PBS-T and blocked with 100 μL/well of 5% M-P for 1 h at 25° C. Fab samples were serially diluted 3-fold using 5% M-P and 50 μL/well was incubated for 1 h at 25° C. The plate was washed three times with PBS-T and 50 μL/well anti-human kappa, and HRP conjugate (Southern Biotech, cat. #2060-05) diluted 10,000-fold in 5% M-P was added for 1 h at 25° C. In certain assays (extended wash format), the plate was placed in large volumes (up to 1 L) of PBS-T and incubated, with mixing, for 2-5 h prior to the addition of anti-human kappa, HRP conjugate. The plate was washed three times with PBS-T, and developed with 50 μL/well 1-Step Ultra TMB-ELISA (Thermo Scientific, cat. #34028). The reaction was terminated by the addition of 2 N H2504 and the A450 was determined using a Spectramax plate reader.

T1 sequence (Q01973 30-406 limits assumed): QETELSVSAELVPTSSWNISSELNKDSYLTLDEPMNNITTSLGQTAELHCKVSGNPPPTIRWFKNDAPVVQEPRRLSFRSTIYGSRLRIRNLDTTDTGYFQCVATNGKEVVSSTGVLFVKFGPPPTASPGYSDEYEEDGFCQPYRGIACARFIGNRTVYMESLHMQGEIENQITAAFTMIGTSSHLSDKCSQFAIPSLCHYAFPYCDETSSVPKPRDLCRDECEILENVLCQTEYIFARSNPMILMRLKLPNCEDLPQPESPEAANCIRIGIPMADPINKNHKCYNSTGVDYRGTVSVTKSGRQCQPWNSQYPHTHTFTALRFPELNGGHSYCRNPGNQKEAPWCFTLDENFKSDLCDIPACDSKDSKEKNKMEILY

Kd [nM] | Binder
1.6 | Ab1 Fab variant L2 S68G (Fab, V domains shown, Fab; also called SGGTLQS) VH: QVQLQESGPGLVKPSQTLSLTCTVSGYAFTAYNIHWVRQAPGQGLEWMGSFDPYDGGSSYNQKFKDRLTISKDTSKNQVVLTMTNMDPVDTATYYCARGWYYFDYWGHGTLVTVSS VL: DIVMTQTPLSLPVTPGEPASISCRASKSISKYLAWYQQKPGQAPRLLIYSGGTLQSGIPPRFSGSGYGTDFTLTINNIESEDAAYYFCQQHDESPYTFGEGTKVEIK
1.1 | Ab1 Fab variant L2 Q71T (Fab, V domains shown, Fab; also called SGSTLTS) VH: QVQLQESGPGLVKPSQTLSLTCTVSGYAFTAYNIHWVRQAPGQGLEWMGSFDPYDGGSSYNQKFKDRLTISKDTSKNQVVLTMTNMDPVDTATYYCARGWYYFDYWGHGTLVTVSS VL: DIVMTQTPLSLPVTPGEPASISCRASKSISKYLAWYQQKPGQAPRLLIYSGSTLTSGIPPRFSGSGYGTDFTLTINNIESEDAAYYFCQQHDESPYTFGEGTKVEIK
1.1 | Ab1 Fab variant L1 S32A (Fab, V domains shown, Fab) VH: QVQLQESGPGLVKPSQTLSLTCTVSGYAFTAYNIHWVRQAPGQGLEWMGSFDPYDGGSSYNQKFKDRLTISKDTSKNQVVLTMTNMDPVDTATYYCARGWYYFDYWGHGTLVTVSS VL: DIVMTQTPLSLPVTPGEPASISCRASKSIAKYLAWYQQKPGQAPRLLIYSGSTLQSGIPPRFSGSGYGTDFTLTINNIESEDAAYYFCQQHDESPYTFGEGTKVEIK
1.9 | Ab1 Fab variant L1 S32I (Fab, V domains shown, Fab) VH: QVQLQESGPGLVKPSQTLSLTCTVSGYAFTAYNIHWVRQAPGQGLEWMGSFDPYDGGSSYNQKFKDRLTISKDTSKNQVVLTMTNMDPVDTATYYCARGWYYFDYWGHGTLVTVSS VL: DIVMTQTPLSLPVTPGEPASISCRASKSIIKYLAWYQQKPGQAPRLLIYSGSTLQSGIPPRFSGSGYGTDFTLTINNIESEDAAYYFCQQHDESPYTFGEGTKVEIK
16 | Ab1 Fab variant L1 S30P (Fab, V domains shown, Fab) VH: QVQLQESGPGLVKPSQTLSLTCTVSGYAFTAYNIHWVRQAPGQGLEWMGSFDPYDGGSSYNQKFKDRLTISKDTSKNQVVLTMTNMDPVDTATYYCARGWYYFDYWGHGTLVTVSS VL: DIVMTQTPLSLPVTPGEPASISCRASKPISKYLAWYQQKPGQAPRLLIYSGSTLQSGIPPRFSGSGYGTDFTLTINNIESEDAAYYFCQQHDESPYTFGEGTKVEIK
2.3 | Ab1 Fab variant L2 L70H (Fab, V domains shown, Fab; also called SGSTHQS) VH: QVQLQESGPGLVKPSQTLSLTCTVSGYAFTAYNIHWVRQAPGQGLEWMGSFDPYDGGSSYNQKFKDRLTISKDTSKNQVVLTMTNMDPVDTATYYCARGWYYFDYWGHGTLVTVSS VL: DIVMTQTPLSLPVTPGEPASISCRASKSISKYLAWYQQKPGQAPRLLIYSGSTHQSGIPPRFSGSGYGTDFTLTINNIESEDAAYYFCQQHDESPYTFGEGTKVEIK
1.5 | Ab1 Fab variant L2 L70K (Fab, V domains shown, Fab; also called SGSTKQS) VH: QVQLQESGPGLVKPSQTLSLTCTVSGYAFTAYNIHWVRQAPGQGLEWMGSFDPYDGGSSYNQKFKDRLTISKDTSKNQVVLTMTNMDPVDTATYYCARGWYYFDYWGHGTLVTVSS VL: DIVMTQTPLSLPVTPGEPASISCRASKSISKYLAWYQQKPGQAPRLLIYSGSTKQSGIPPRFSGSGYGTDFTLTINNIESEDAAYYFCQQHDESPYTFGEGTKVEIK
1.3 | Ab1 Fab variant L2 Q71V (Fab, V domains shown, Fab; also called SGSTLVS) VH: QVQLQESGPGLVKPSQTLSLTCTVSGYAFTAYNIHWVRQAPGQGLEWMGSFDPYDGGSSYNQKFKDRLTISKDTSKNQVVLTMTNMDPVDTATYYCARGWYYFDYWGHGTLVTVSS VL: DIVMTQTPLSLPVTPGEPASISCRASKSISKYLAWYQQKPGQAPRLLIYSGSTLVSGIPPRFSGSGYGTDFTLTINNIESEDAAYYFCQQHDESPYTFGEGTKVEIK

The remaining lines, values behind:

Binder | Kd [nM]
Ab1 Fab variant H2 S69V (Fab, V domains shown, Fab) VH: QVQLQESGPGLVKPSQTLSLTCTVSGYAFTAYNIHWVRQAPGQGLEWMGSFDPYDGGSVYNQKFKDRLTISKDTSKNQVVLTMTNMDPVDTATYYCARGWYYFDYWGHGTLVTVSS VL: DIVMTQTPLSLPVTPGEPASISCRASKSISKYLAWYQQKPGQAPRLLIYSGSTLQSGIPPRFSGSGYGTDFTLTINNIESEDAAYYFCQQHDESPYTFGEGTKVEIK | 1
Ab1 Fab variant L1 K29E (Fab, V domains shown, Fab) VH: QVQLQESGPGLVKPSQTLSLTCTVSGYAFTAYNIHWVRQAPGQGLEWMGSFDPYDGGSSYNQKFKDRLTISKDTSKNQVVLTMTNMDPVDTATYYCARGWYYFDYWGHGTLVTVSS VL: DIVMTQTPLSLPVTPGEPASISCRASESISKYLAWYQQKPGQAPRLLIYSGSTLQSGIPPRFSGSGYGTDFTLTINNIESEDAAYYFCQQHDESPYTFGEGTKVEIK | 1.2
Ab1 Fab variant L1 L41V (Fab, V domains shown, Fab) VH: QVQLQESGPGLVKPSQTLSLTCTVSGYAFTAYNIHWVRQAPGQGLEWMGSFDPYDGGSSYNQKFKDRLTISKDTSKNQVVLTMTNMDPVDTATYYCARGWYYFDYWGHGTLVTVSS VL: DIVMTQTPLSLPVTPGEPASISCRASKSISKYVAWYQQKPGQAPRLLIYSGSTLQSGIPPRFSGSGYGTDFTLTINNIESEDAAYYFCQQHDESPYTFGEGTKVEIK | 1.1
Ab1 Fab variant L1 S30F (Fab, V domains shown, Fab) VH: QVQLQESGPGLVKPSQTLSLTCTVSGYAFTAYNIHWVRQAPGQGLEWMGSFDPYDGGSSYNQKFKDRLTISKDTSKNQVVLTMTNMDPVDTATYYCARGWYYFDYWGHGTLVTVSS VL: DIVMTQTPLSLPVTPGEPASISCRASKFISKYLAWYQQKPGQAPRLLIYSGSTLQSGIPPRFSGSGYGTDFTLTINNIESEDAAYYFCQQHDESPYTFGEGTKVEIK | 18
Ab1 Fab variant L1 I31V (Fab, V domains shown, Fab) VH: QVQLQESGPGLVKPSQTLSLTCTVSGYAFTAYNIHWVRQAPGQGLEWMGSFDPYDGGSSYNQKFKDRLTISKDTSKNQVVLTMTNMDPVDTATYYCARGWYYFDYWGHGTLVTVSS VL: DIVMTQTPLSLPVTPGEPASISCRASKSVSKYLAWYQQKPGQAPRLLIYSGSTLQSGIPPRFSGSGYGTDFTLTINNIESEDAAYYFCQQHDESPYTFGEGTKVEIK | 2.8
Ab1 Fab variant L1 A25P (Fab, V domains shown, Fab) VH: QVQLQESGPGLVKPSQTLSLTCTVSGYAFTAYNIHWVRQAPGQGLEWMGSFDPYDGGSSYNQKFKDRLTISKDTSKNQVVLTMTNMDPVDTATYYCARGWYYFDYWGHGTLVTVSS VL: DIVMTQTPLSLPVTPGEPASISCRPSKSISKYLAWYQQKPGQAPRLLIYSGSTLQSGIPPRFSGSGYGTDFTLTINNIESEDAAYYFCQQHDESPYTFGEGTKVEIK | 0.7
Ab1 Fab variant L1 K29S (Fab, V domains shown, Fab) VH: QVQLQESGPGLVKPSQTLSLTCTVSGYAFTAYNIHWVRQAPGQGLEWMGSFDPYDGGSSYNQKFKDRLTISKDTSKNQVVLTMTNMDPVDTATYYCARGWYYFDYWGHGTLVTVSS VL: DIVMTQTPLSLPVTPGEPASISCRASSSISKYLAWYQQKPGQAPRLLIYSGSTLQSGIPPRFSGSGYGTDFTLTINNIESEDAAYYFCQQHDESPYTFGEGTKVEIK | 0.9
Ab1 Fab variant H2 Y70V (Fab, V domains shown, Fab) VH: QVQLQESGPGLVKPSQTLSLTCTVSGYAFTAYNIHWVRQAPGQGLEWMGSFDPYDGGSSVNQKFKDRLTISKDTSKNQVVLTMTNMDPVDTATYYCARGWYYFDYWGHGTLVTVSS VL: DIVMTQTPLSLPVTPGEPASISCRASKSISKYLAWYQQKPGQAPRLLIYSGSTLQSGIPPRFSGSGYGTDFTLTINNIESEDAAYYFCQQHDESPYTFGEGTKVEIK | 1.5
Ab1 Fab variant L1 S30H (Fab, V domains shown, Fab) VH: QVQLQESGPGLVKPSQTLSLTCTVSGYAFTAYNIHWVRQAPGQGLEWMGSFDPYDGGSSYNQKFKDRLTISKDTSKNQVVLTMTNMDPVDTATYYCARGWYYFDYWGHGTLVTVSS VL: DIVMTQTPLSLPVTPGEPASISCRASKHISKYLAWYQQKPGQAPRLLIYSGSTLQSGIPPRFSGSGYGTDFTLTINNIESEDAAYYFCQQHDESPYTFGEGTKVEIK | 1.4
Ab1 Fab variant L1 L41M (Fab, V domains shown, Fab) VH: QVQLQESGPGLVKPSQTLSLTCTVSGYAFTAYNIHWVRQAPGQGLEWMGSFDPYDGGSSYNQKFKDRLTISKDTSKNQVVLTMTNMDPVDTATYYCARGWYYFDYWGHGTLVTVSS VL: DIVMTQTPLSLPVTPGEPASISCRASKSISKYMAWYQQKPGQAPRLLIYSGSTLQSGIPPRFSGSGYGTDFTLTINNIESEDAAYYFCQQHDESPYTFGEGTKVEIK | 1.3
Ab1 Fab variant L1 S30A (Fab, V domains shown, Fab) VH: QVQLQESGPGLVKPSQTLSLTCTVSGYAFTAYNIHWVRQAPGQGLEWMGSFDPYDGGSSYNQKFKDRLTISKDTSKNQVVLTMTNMDPVDTATYYCARGWYYFDYWGHGTLVTVSS VL: DIVMTQTPLSLPVTPGEPASISCRASKAISKYLAWYQQKPGQAPRLLIYSGSTLQSGIPPRFSGSGYGTDFTLTINNIESEDAAYYFCQQHDESPYTFGEGTKVEIK | 1.5
Ab1 Fab variant H2 Y70I (Fab, V domains shown, Fab) VH: QVQLQESGPGLVKPSQTLSLTCTVSGYAFTAYNIHWVRQAPGQGLEWMGSFDPYDGGSSINQKFKDRLTISKDTSKNQVVLTMTNMDPVDTATYYCARGWYYFDYWGHGTLVTVSS VL: DIVMTQTPLSLPVTPGEPASISCRASKSISKYLAWYQQKPGQAPRLLIYSGSTLQSGIPPRFSGSGYGTDFTLTINNIESEDAAYYFCQQHDESPYTFGEGTKVEIK | 1.7
